These results are taken from paper PMC4779226.

What is called stoichiometry N is the number of molecules, sites or subunits per partner or assembly.

In assay [1] the target is ChrF-His6, Mn superoxide dismutase ChrF of TnOtchr from Ochrobactrum tritici 5bvl1 (Ochrobactrum tritici 5bvl1). The assay can be described thus: SEC; Superdex 200 10/300 GL, 0.5 mL/min, 50 mM Tris-HCl, 0.15 M NaCl, pH 7.4; mass from a curve of standard proteins. For orientation: In gel filtration, larger molecules generally elute earlier.
For assay [2] the target is unchanged. The assay can be described thus: cross-linking; 10 ug purified enzyme with 0.1 % glutaraldehyde in 20 mM NaCl, 10 mM KCl, 2 mM DTT, 20 mM Hepes pH 7.5; 5, 15 and 30 min at 30 °C; 12 % SDS-PAGE.
Assay [3] addresses ChrC-His6, Fe superoxide dismutase ChrC of TnOtchr from Ochrobactrum tritici 5bvl1 (Ochrobactrum tritici 5bvl1). The assay can be described thus: SEC; Superdex 200 10/300 GL, 0.5 mL/min, 50 mM Tris-HCl, 0.15 M NaCl, pH 7.4; mass from a curve of standard proteins.
The target is the same in assay [4]. Nature of the assay: cross-linking; 10 ug purified enzyme with 0.1 % glutaraldehyde in 20 mM NaCl, 10 mM KCl, 2 mM DTT, 20 mM Hepes pH 7.5; 5, 15 and 30 min at 30 °C; 12 % SDS-PAGE.

For “ChrF-His6, Mn superoxide dismutase ChrF of TnOtchr from Ochrobactrum tritici 5bvl1 (enzyme)”, the stoichiometry N in assay [1] and in assay [2] was 2 in each case.

Take “ChrC-His6, Fe superoxide dismutase ChrC of TnOtchr from Ochrobactrum tritici 5bvl1 (enzyme)”: the stoichiometry N in assay [3] and in assay [4] was 4 throughout.
